Blank lines part the entries; values can stand above or below the molecule they belong to.
Columns and labels:
ErbB2 (Homo sapiens) = ErbB2 (Homo sapiens) (UniProt P04626); details: cited from earlier work
ErbB1 ECD (Homo sapiens) = ErbB1 ECD (Homo sapiens) (UniProt P00533); details: cited from earlier work
[1] = target: human ErbB1 mutant lacking ECD subdomain 1 (aa #1-165) (human) (UniProt P00533); test: ELISA; as a1 but with lysates of CHO-K1 cells transiently transfected for 24 h with wild-type ErbB1 or a subdomain deletion mutant; equal amounts of ErbB1 protein by immunoblot densitometry
[2] = target: human ErbB1 mutant lacking ECD subdomain 3 (aa #311-480) (human) (UniProt P00533); test: as above
[3] = target: human ErbB1 mutant lacking ECD subdomain 4 (aa #481-620) (human) (UniProt P00533); test: as above
[4] = target: T1, human ErbB1, full length, stably expressed in CHO-K1 cells (CHO-K1/ErbB1) (human, UniProt P00533 25-1210); test: ELISA; wells coated with an antibody to the cytoplasmic tail of ErbB1; serially diluted His-tagged hPEPD or mutant plus CHO-K1/ErbB1 cell lysate (25 ug total protein), 37 C, 2 h; bound PEPD detected by biotin-conjugated anti-His antibody and streptavidin-HRP; CHO-K1 lysate as control; details: one partner purified
T1 construct: human ErbB1 (EGF receptor), full length; source: CHO-K1, stably transfected (pCMV6-A-ERBB1-Puro, puromycin selection), in lysate

Molecule: prolidase (PEPD) (from UniProt P12955)
- Kd (ErbB2 (Homo sapiens)): 7.3 nM
- Kd (ErbB1 ECD (Homo sapiens)): 5000 nM

- fold reduction of binding affinity (Kd) against wild-type ErbB1 [1]: 19.2 fold
- fold reduction of binding affinity (Kd) against wild-type ErbB1 [2]: 7.4 fold
- fold reduction of binding affinity (Kd) against wild-type ErbB1 [3]: 1.4 fold
B1: hPEPD-G278D, enzymatically inactive mutant of recombinant human prolidase (enzyme)
chain: MAAATGPSFWLGNETLKVPLALFALNRQRLCERLRKNPAVQAGSIVVLQGGEETQRYCTDTGVLFRQESFFHWAFGVTEPGCYGVIDVDTGKSTLFVPRLPASHATWMGKIHSKEHFKEKYAVDDVQYVDEIASVLTSQKPSVLLTLRGVNTDSGSVCREASFDGISKFEVNNTILHPEIVECRVFKTDMELEVLRYTNKISSEAHREVMKAVKVGMKEYELESLFEHYCYSRGGMRHSSYTCICGSGENSAVLHYGHAGAPNDRTIQNGDMCLFDMDGEYYCFASDITCSFPANGKFTADQKAVYEAVLRSSRAVMGAMKPGVWWPDMHRLADRIHLEELAHMGILSGSVDAMVQAHLGAVFMPHGLGHFLGIDVHDVGGYPEGVERIDEPGLRSLRTARHLQPGMVLTVEPGIYFIDHLLDEALADPARASFLNREVLQRFRGFGGVRIEEDVVVTDSGIELLTCVPRTVEEIEACMAGCDKAFTPFSGPK

- Kd [4]: 17.7 nM
B2: recombinant human prolidase (peptidase D), hPEPD (enzyme, UniProt P12955 1-493, looked up)
chain: MAAATGPSFWLGNETLKVPLALFALNRQRLCERLRKNPAVQAGSIVVLQGGEETQRYCTDTGVLFRQESFFHWAFGVTEPGCYGVIDVDTGKSTLFVPRLPASHATWMGKIHSKEHFKEKYAVDDVQYVDEIASVLTSQKPSVLLTLRGVNTDSGSVCREASFDGISKFEVNNTILHPEIVECRVFKTDMELEVLRYTNKISSEAHREVMKAVKVGMKEYELESLFEHYCYSRGGMRHSSYTCICGSGENSAVLHYGHAGAPNDRTIQNGDMCLFDMGGEYYCFASDITCSFPANGKFTADQKAVYEAVLRSSRAVMGAMKPGVWWPDMHRLADRIHLEELAHMGILSGSVDAMVQAHLGAVFMPHGLGHFLGIDVHDVGGYPEGVERIDEPGLRSLRTARHLQPGMVLTVEPGIYFIDHLLDEALADPARASFLNREVLQRFRGFGGVRIEEDVVVTDSGIELLTCVPRTVEEIEACMAGCDKAFTPFSGPK
notes: source: E. coli, as previously described [13, 17]; not shown: His tag, C-terminal, kept

— publication PMC5173139, “Dual inhibition of ErbB1 and ErbB2 in cancer by recombinant human prolidase mutant hPEPD-G278D” (Oncotarget, 2016)
